Data: PMC8317929 (mAbs, 2021)

Tests used:
[1] = molecular target: SARS-CoV-2 RBD recombinant protein (SARS-CoV-2, Wuhan-Hu-1 (QHD43416.1), UniProt P0DTC2); experiment: BLI
[2] = molecular target: SARS-CoV RBD recombinant protein (SARS-CoV; strain of construct not …, UniProt Q19QX0); experiment: BLI

B1: MW05 (antibody, V domains shown)
VH: EVQLVQSGAEVKKPGSSVKVSCKASGGTFSSYAISWVRQAPGQGLEWMGRIIPIFGSSNYAQKFQGRVTITADESTSTAYMELSSLRSEDTAVYYCAESPLGGGSGYSVSWFDPWGQGTLVTVSS
VL: not shown
**Q.** Does B1 bind [1]?
**A.** Result: binds

B2: MW06 (antibody, V domains shown)
VH: EVQLLESGGGLVQPGGSLRLSCAASGFTFSSYAMNWVRQAPGKGLEWVSVISGSGGSTYYADSVRGRFTISRDNSKNTLYLQMNSLRAEDTAVYCCAKGYYYDSSGYYFREDAFDIWGQGTLVTVSS
VL: DIQMTQSPSAMSASVGDRVTITCRASQGISNYLAWFQQKPGKVPKRLIYAASSLQSGVPSRFSGSGSGTEFTLTISSLQPEDFATYYCLQHNSYPYTFGQGTKLEIK
**Q.** B2 was tested. Which Kd [2] did it give?
**A.** Its Kd is 12.3 nM.

**Q.** What about the Kd [1] of the same binder?
**A.** The Kd was 5.48 nM.
